The results in this text go back to PMC3148250, “Structural Basis for Sequence Specific DNA Binding and Protein Dimerization of HOXA13”.

The term Kd denotes the free concentration of one partner at which half of the binding sites on the other are occupied at equilibrium, for simple one-to-one binding.

Data set [1] deals with T1, A13DBD WT (mouse (murine), UniProt Q62424 320-386). Nature of the data set: fluorescence anisotropy; 10 mM MgCl2; FA: 20 mM Tris pH 7.5, 80 mM KCl, 10 mM MgCl2, 0.2 mM EDTA, 1 mM DTT, 15 C, 1 nM DNA; NMR complex: 20 mM NaPO4 pH 6.0, 5 mM MgCl2, 10% D2O, 310 K; ITC buffer not given in the material. Particulars: protein: recombinant; tags: His-tag removed by thrombin; label: 5' 6-FAM via hexyl linker; hairpin (self-annealing).

In data set [2] the target is T2, A13DBD V373G (mouse (murine), UniProt Q62424 320-386, V373G). The data set is described as above. Particulars: protein: recombinant; tags: His-tag removed by thrombin; label: 5' 6-FAM via hexyl linker; hairpin (self-annealing).
Data set [3] deals with T1, A13DBD WT. The data set can be described thus: ITC; FA: 20 mM Tris pH 7.5, 80 mM KCl, 10 mM MgCl2, 0.2 mM EDTA, 1 mM DTT, 15 C, 1 nM DNA; NMR complex: 20 mM NaPO4 pH 6.0, 5 mM MgCl2, 10% D2O, 310 K; ITC buffer not given in the material. As to conditions: protein: recombinant, tags: His-tag removed by thrombin.
The target of data set [4] is T2, A13DBD V373G. The data set is described as above. Particulars: protein: recombinant; tags: His-tag removed by thrombin; C5-A5* mismatch with strand 2 as printed.
The target of data set [5] is T1, A13DBD WT. Nature of the data set: fluorescence anisotropy; 10 mM MgCl2; text fold changes suggest T6*C and T6*U swapped; FA: 20 mM Tris pH 7.5, 80 mM KCl, 10 mM MgCl2, 0.2 mM EDTA, 1 mM DTT, 15 C, 1 nM DNA; NMR complex: 20 mM NaPO4 pH 6.0, 5 mM MgCl2, 10% D2O, 310 K; ITC buffer not given in the material. Particulars: protein: recombinant; tags: His-tag removed by thrombin; label: 5' 6-FAM via hexyl linker; hairpin (self-annealing).

Data set [6] has as its target A13DBD I366A (mouse (murine), UniProt Q62424 320-386, I366A). Nature of the data set: ITC; FA: 20 mM Tris pH 7.5, 80 mM KCl, 10 mM MgCl2, 0.2 mM EDTA, 1 mM DTT, 15 C, 1 nM DNA; NMR complex: 20 mM NaPO4 pH 6.0, 5 mM MgCl2, 10% D2O, 310 K; ITC buffer not given in the material. As to conditions: protein: recombinant; tags: His-tag removed by thrombin; blunt. A general note: Isothermal titration calorimetry measures the heat released or taken up as one component is titrated into another.

Data set [7] concerns the target A13DBD V373A (mouse (murine), UniProt Q62424 320-386, V373A). Described as above. Particulars: protein: recombinant; tags: His-tag removed by thrombin; blunt.
Data set [8] concerns the target A13DBD F344A (mouse (murine), UniProt Q62424 320-386, F344A). Nature of the data set: ITC; does not affect DNA binding; FA: 20 mM Tris pH 7.5, 80 mM KCl, 10 mM MgCl2, 0.2 mM EDTA, 1 mM DTT, 15 C, 1 nM DNA; NMR complex: 20 mM NaPO4 pH 6.0, 5 mM MgCl2, 10% D2O, 310 K; ITC buffer not given in the material. Particulars: protein: recombinant; tags: His-tag removed by thrombin; blunt.

Data set [9] has as its target T2, A13DBD V373G. The data set can be described thus: ITC; text says 3-4-fold lower affinity; FA: 20 mM Tris pH 7.5, 80 mM KCl, 10 mM MgCl2, 0.2 mM EDTA, 1 mM DTT, 15 C, 1 nM DNA; NMR complex: 20 mM NaPO4 pH 6.0, 5 mM MgCl2, 10% D2O, 310 K; ITC buffer not given in the material. As to conditions: protein: recombinant; tags: His-tag removed by thrombin; blunt.
The target in data set [10] is A13DBD N370A (mouse (murine), UniProt Q62424 320-386, N370A). Nature of the data set: ITC; text says ~1000-fold lower affinity; FA: 20 mM Tris pH 7.5, 80 mM KCl, 10 mM MgCl2, 0.2 mM EDTA, 1 mM DTT, 15 C, 1 nM DNA; NMR complex: 20 mM NaPO4 pH 6.0, 5 mM MgCl2, 10% D2O, 310 K; ITC buffer not given in the material. Particulars: protein: recombinant; tags: His-tag removed by thrombin; blunt.

The target in data set [11] is T2, A13DBD V373G. Nature of the data set: competition; 50 nM already competes with consensus; 4 uM protein; FA: 20 mM Tris pH 7.5, 80 mM KCl, 10 mM MgCl2, 0.2 mM EDTA, 1 mM DTT, 15 C, 1 nM DNA; NMR complex: 20 mM NaPO4 pH 6.0, 5 mM MgCl2, 10% D2O, 310 K; ITC buffer not given in the material. As to conditions: protein: recombinant; tags: His-tag removed by thrombin; hairpin (self-annealing).

T2 sequence (Q62424 320-386 V373G): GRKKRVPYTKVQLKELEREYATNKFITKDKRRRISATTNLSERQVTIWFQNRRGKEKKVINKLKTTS
T1 sequence (Q62424 320-386): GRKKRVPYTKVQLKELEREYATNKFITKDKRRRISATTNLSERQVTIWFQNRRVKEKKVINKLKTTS
Chain of A13DBD F344A (Q62424 320-386 F344A): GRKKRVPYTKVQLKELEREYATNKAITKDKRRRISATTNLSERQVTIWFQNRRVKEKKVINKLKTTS
Chain of A13DBD V373A (Q62424 320-386 V373A): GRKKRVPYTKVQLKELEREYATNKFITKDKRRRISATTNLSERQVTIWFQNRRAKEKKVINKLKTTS
Chain of A13DBD N370A (Q62424 320-386 N370A): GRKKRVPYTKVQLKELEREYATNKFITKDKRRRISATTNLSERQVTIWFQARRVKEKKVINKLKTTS
Chain of A13DBD I366A (Q62424 320-386 I366A): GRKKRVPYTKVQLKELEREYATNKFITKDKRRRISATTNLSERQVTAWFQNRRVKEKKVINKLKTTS

Regarding CAAAUAAATCCCCCATTTTATTGTG (structured_DNA, deoxyuridine at position 5) [FA T5U], the Kd in data set [1] amounted to 4.01 ± 0.28 nM.
For the molecule CAAATAAAATCCCCCATTTTATTTG (structured_DNA) [FA consensus (wt)], the Kd in data set [1] came to 2.19 ± 0.06 nM; in [2], 56.6 ± 2.25 nM.

B1: 11-mer T5C (dsDNA)
DNA 1: CAAACAAAATC
DNA 2: GATTTTATTTG
With B1, the Kd in [3] (C5-A5* mismatch with strand 2 as printed) was 286 nM; in data set [4], 617 nM.

B2: 11-mer T5U (dsDNA)
DNA 1: CAAAUAAAATC
DNA 2: GATTTTATTTG
modifications: deoxyuridine at T5 (DNA strand)
In the case of B2, the Kd in data set [3] (blunt) is 14.5 nM.
For the molecule CAAATGAAATCCCCCATTTCATTG (structured_DNA) [FA T6*C], the Kd was 79.3 ± 6.93 nM in data set [2] and 5.95 ± 0.64 nM in data set [5].

B3: 11-mer duplex WT (dsDNA)
DNA 1: CAAATAAAATC
DNA 2: GATTTTATTTG
Turning to B3, the Kd was found to be 43.7 nM in data set [6]; 7.5 nM in data set [3] (blunt); 18.7 nM in data set [7]; 137 nM in [9]; 862 nM in data set [10]. The binding result in data set [8] is on record as “binds”.
As to CAAACAAAATCCCCCATTTTGTTTG (structured_DNA) [FA T5C], the Kd in data set [1] turned out to be 49.2 ± 4.97 nM; in [2] it was 616 ± 56.1 nM.
Consider TGACTGACTGACTGCCCCCCAGTCAG (structured_DNA) [Scrambled], for which the binding result in data set [11] was “binds”.
